From patent publication US20130196406A1, “NOVEL PROTEIN-POLYMER NANOCAPSULES” (University of Connecticut, priority 2012, published 2013)
“And” between values parts separate entries of the source, which are not always exact repeats. Identical values can stand only once.

Test system: T1, COc1ccccc1O
T1 construct: peroxidase-like activity with guaiacol/H2O2
Assay: Peroxidase-like activity, Michaelis-Menten kinetics (guaiacol oxidation by H2O2, 470 nm), unmodified Hb
Assay type: biochemical, bovine
Conditions: other: Hb, 1 μM Hb, 2.5 mM guaiacol
Protocol: FIG. 5 provides Lineweaver-Burk plots for the peroxidase-like activity of Hb-PAA conjugates. A) Peroxidase-like activity for the 1 μM of Hb-PAA synthesized at pH 6.0. B) Peroxidase-like activity for 1 μM Hb-PAA synthesized at pH 7.0. All experiments were done in the presence of 1 μM Hb, 2.5 mM guaiacol and 1 mM H2O2.
Polyacrylic acid (PAA) (8000 Da) was purchased from sigma chemical Co (St. Louis, Mo.). The PAA stock solution was made by mixing 1.32 gm of 45% (w/w) PAA in 3 ml of 20 mM Na2HPO4 buffer, pH 7.2, and was further used for synthesis. Met-hemoglobin (Hb, bovine) was purchased from Sigma. Protein solutions were prepared in the respective buffers used for synthesis and the concentrations determined from the Soret absorbance of Hb using extinction co-efficient 303,956 M^−1 cm^−1 at 407 nm.
Hb activity was monitored by the addition of guaiacol (substrate) and hydrogen peroxide (oxidant), and formation of the colored product has been monitored by its absorption at 470 nm as a function of time (FIG. 4). […]
Hb activity was followed by literature method, with minor modifications. Product absorbance at 470 nm was monitored as a function time of after the addition of H2O2 (1 mM) to Hb (5 μM) and o-methoxyphenol (2.5 mM). Initial rates and Michaelis-Menten parameters were calculated from the kinetic data by following standard protocols. […]

Chain of Met-hemoglobin (Hb, bovine), unmodified (Bos taurus) (chain, as listed by the source): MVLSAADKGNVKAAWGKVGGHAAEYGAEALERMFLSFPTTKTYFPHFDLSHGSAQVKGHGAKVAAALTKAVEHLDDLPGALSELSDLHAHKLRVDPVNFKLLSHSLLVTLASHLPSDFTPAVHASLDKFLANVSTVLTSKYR
Chain of Met-hemoglobin (Hb, bovine), unmodified (Bos taurus) (chain, as listed by the source): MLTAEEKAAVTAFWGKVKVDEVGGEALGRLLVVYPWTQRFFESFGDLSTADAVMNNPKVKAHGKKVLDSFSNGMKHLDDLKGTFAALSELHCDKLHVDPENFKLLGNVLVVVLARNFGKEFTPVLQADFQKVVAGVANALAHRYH

Met-hemoglobin (Hb, bovine), unmodified (Bos taurus)
Km (1 mM H2O2): 0.500 mM and 0.507 mM | Vmax (1 mM H2O2, 120.0 °C): 0.0026 mM/s and 0.0021 mM/s
